Reference: paper PMC10157364

Assays:
[1] = target: all anti-oxMIF antibodies (quantitative oxMIF ELISA, Fig. 1C); assay: ELISA; quantitative oxMIF ELISA: 15 nmol/L C0008, ON103 or ON203 as capture antibodies; human or mouse MIF in buffers with 0.2% Proclin300 as standard curves; EC50
[2] = target: ON103 and ON203 versus C0008 (SPR, Fig. 1D); assay: SPR; Biacore 3000; antibodies amine-coupled to CM5 chips (about 2,500; 1,500; 1,000 RU); MIF at 42-666 nmol/L in HBS-EP with 0.2% Proclin300 (3 hours, room temperature), 30 uL/minute; Langmuir 1:1 model with mass transfer; mean of flow cells 2-4

EC50 [1]: 0.6 to 0.7 nM
Kd [2]: 3.5 to 6.1 nM
B1: human MIF treated with 0.2% Proclin300 (oxMIF surrogate) (natural protein)
chain: MPMFIVNTNVPRASVPDGFLSELTQQLAQATGKPPQYIAVHVVPDQLMAFGGSSEPCALCSLHSIGKIGGAQNRSYSKLLCGLLAERLRISPDRVYINYYDMNAANVGWNNSTFA
modifications: treated with 0.2% Proclin300 to transform MIF into an oxMIF surrogate
